Laboratory results taken from article PMC3158823.

Biological target: Neu/V664E TM domain peptide (rat)
Test: SDS-PAGE mobility

Neu/V664E TM domain peptide
stoichiometry N: 2
